Assay results reported in paper PMC7010817.

Target: PPARα (UniProt P23204)
Assay: Flag-JMJD3 co-IP, PPARα immunoblot
Settings: reference: wild type, FGF21-treated; sites T1044

With “JMJD3 (KDM6B) (from UniProt Q5NCY0) T1044A, FGF21-treated” the “binding against the reference” value was “weaker”.
